Positions count from the first letter of the chain named.
How the values were obtained:
Assay in all cases: cell_activity; CHO iGFFP reporter
LOX 3-4m.1237 = target: T1, LOX 3-4m.1237 (artificial (I-CreI derived))
T1 chain: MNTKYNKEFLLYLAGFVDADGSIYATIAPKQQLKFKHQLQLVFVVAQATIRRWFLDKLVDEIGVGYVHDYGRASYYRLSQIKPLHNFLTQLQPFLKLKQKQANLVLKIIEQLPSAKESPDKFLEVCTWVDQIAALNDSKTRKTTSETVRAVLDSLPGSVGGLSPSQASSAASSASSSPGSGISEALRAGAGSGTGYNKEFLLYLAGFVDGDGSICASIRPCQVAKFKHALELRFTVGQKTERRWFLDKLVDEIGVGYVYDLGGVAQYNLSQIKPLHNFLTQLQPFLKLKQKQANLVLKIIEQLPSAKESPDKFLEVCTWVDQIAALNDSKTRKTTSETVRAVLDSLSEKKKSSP
From the text: (§1) A CHO cell reporter system (see WO/2012/167192, FIG. 3) was used to determine whether the engineered meganucleases generated in these studies could recognize and cleave the modified LOX 3-4 recognition sequences in Table 87. To perform the assay, a pair of CHO cell reporter lines were produced, which carried a non-functional Green Fluorescent Protein (GFP) gene expression cassette integrated into the genome of the cell. The GFP gene in each cell line was interrupted by a pair of recognition sequences such that intracellular cleavage of either recognition sequence by a meganuclease would stimulate a homologous recombination event resulting in a functional GFP gene. In both cell lines, one of the recognition sequences was derived from the LOX 3-4 recognition sequence (i.e., those sequences disclosed in Table 87), and the second recognition sequence was specifically recognized by a control meganuclease called “CHO 23/24.” CHO reporter cells comprising a recognition sequence derived from the LOX 3-4 recognition sequence and the CHO 23/24 recognition sequence are referred to herein as “test cells.”
(§2) Novel engineered meganucleases derived from the LOX 3-4x.109 meganuclease were prepared by making amino acid substitutions at one or more positions in the first subunit and one or more positions in the second subunit. These engineered meganucleases were then evaluated for cleavage of the LOX 3-4 recognition sequence modified to have an ATAA center sequence (SEQ ID NO: 157) in the CHO reporter assay according to Example 1.

LOX 3-4m.1236 = target: T2, LOX 3-4m.1236 (artificial (I-CreI derived))
T2 chain: T1 chain with A48H, I50T, K239A, E241K, G263Q, K330R
From the text: as §1, §2

LOX 3-4m.1293 = target: T3, LOX 3-4m.1293 (artificial (I-CreI derived))
T3 chain: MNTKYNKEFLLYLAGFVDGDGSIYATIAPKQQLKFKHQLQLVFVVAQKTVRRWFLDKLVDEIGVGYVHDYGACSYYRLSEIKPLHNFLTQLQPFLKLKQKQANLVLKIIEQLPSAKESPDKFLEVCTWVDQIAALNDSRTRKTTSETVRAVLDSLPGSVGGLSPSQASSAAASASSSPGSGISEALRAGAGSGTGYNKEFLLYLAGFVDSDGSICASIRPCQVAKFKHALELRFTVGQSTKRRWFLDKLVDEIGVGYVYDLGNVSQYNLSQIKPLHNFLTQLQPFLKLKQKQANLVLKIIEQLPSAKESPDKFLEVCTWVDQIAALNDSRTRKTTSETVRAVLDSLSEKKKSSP
From the text: as §1, §2

LOX 3-4m.1269 = target: T4, LOX 3-4m.1269 (artificial (I-CreI derived))
T4 chain: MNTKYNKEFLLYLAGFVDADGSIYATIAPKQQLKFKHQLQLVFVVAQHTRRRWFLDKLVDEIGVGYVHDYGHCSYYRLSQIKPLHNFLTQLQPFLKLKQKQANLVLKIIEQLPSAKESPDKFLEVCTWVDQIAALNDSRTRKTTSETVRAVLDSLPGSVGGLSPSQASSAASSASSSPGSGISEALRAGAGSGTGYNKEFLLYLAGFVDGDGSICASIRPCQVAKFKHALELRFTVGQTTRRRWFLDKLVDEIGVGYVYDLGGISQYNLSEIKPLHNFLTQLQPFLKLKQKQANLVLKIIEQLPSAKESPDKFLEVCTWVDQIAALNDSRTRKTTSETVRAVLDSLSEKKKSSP
From the text: as §1, §2

LOX 3-4m.1415 = target: T5, LOX 3-4m.1415 (artificial (I-CreI derived))
T5 chain: T1 chain with A48K, I50R, Q80E, E241C, V250A, V264R, A265S, K330R
From the text: as §1
as §2, with “ATAG” for “ATAA”, “184)” for “157)”

LOX 3-4m.1345 = target: T6, LOX 3-4m.1345 (artificial (I-CreI derived))
T6 chain: T1 chain with A48K, I50R, R72G, E241C, V264R, A265S
From the text: as §1
as §2, with “ATAG” for “ATAA”, “184)” for “157)”

LOX 3-4m.1329 = target: T7, LOX 3-4m.1329 (artificial (I-CreI derived))
T7 chain: T1 chain with A48H, I50R, E241C, V264R, A265S
From the text: as §1
as §2, with “ATAG” for “ATAA”, “184)” for “157)”

LOX 3-4m.1353 = target: T8, LOX 3-4m.1353 (artificial (I-CreI derived))
T8 chain: T1 chain with A48K, I50R, K227R, E241C, V250A, G263S, V264R, A265S, K330R
From the text: as §1
as §2, with “ATAG” for “ATAA”, “184)” for “157)”

LOX 3-4m.684 = target: T9, LOX 3-4m.684 (artificial (I-CreI derived))
T9 chain: T4 chain with H48K, H72R, C73A, R139K, T239S, G263T, S265T
From the text: as §1
as §2, with “ACAA” for “ATAA”, “9)” for “157)”

LOX 3-4m.750 = target: T10, LOX 3-4m.750 (artificial (I-CreI derived))
T10 chain: T4 chain with H48K, R50C, H72R, C73A, R139K, T239A, G263R
From the text: as §1
as §2, with “ACAA” for “ATAA”, “9)” for “157)”

LOX 3-4m.765 = target: T11, LOX 3-4m.765 (artificial (I-CreI derived))
T11 chain: T4 chain with H48K, H72R, C73A, T239S, G263R, S265A
From the text: as §1
as §2, with “ACAA” for “ATAA”, “9)” for “157)”

B1: LOX 3-4 ATAA (dsDNA)
DNA 1: GTATAGCATATAATATACGAAG
DNA 2: CTTCGTATATTATATGCTATAC
activity (LOX 3-4m.1237): 8.13 % GFP
activity (LOX 3-4m.1236): 9.28 % GFP
activity (LOX 3-4m.1293): 8 % GFP
activity (LOX 3-4m.1269): 8.64 % GFP

B2: LOX 3-4 ATAG (dsDNA)
DNA 1: GTATAGCATATAGTATACGAAG
DNA 2: CTTCGTATACTATATGCTATAC
activity (LOX 3-4m.1415): 13.1 % GFP
activity (LOX 3-4m.1345): 14 % GFP
activity (LOX 3-4m.1329): 15.5 % GFP
activity (LOX 3-4m.1353): 15.6 % GFP

B3: LOX 3-4 ACAA (dsDNA)
DNA 1: GTATAGCATACAATATACGAAG
DNA 2: CTTCGTATATTGTATGCTATAC
activity (LOX 3-4m.684): 9.14 % GFP
activity (LOX 3-4m.750): 9.32 % GFP
activity (LOX 3-4m.765): 9.32 % GFP

Source: patent US20220195407, “OPTIMIZATION OF ENGINEERED MEGANUCLEASES FOR RECOGNITION SEQUENCES” (Precision BioSciences, Inc., published 2022)
